Results on five substances are retold here after publication PMC2959088.

Oryzacystatin-1, sequence (P09229 39-140): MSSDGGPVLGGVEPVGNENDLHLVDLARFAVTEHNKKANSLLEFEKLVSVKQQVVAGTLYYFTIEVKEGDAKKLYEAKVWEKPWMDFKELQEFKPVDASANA

In one assay the target is human cathepsin B (human). The assay is described as follows: enzyme inhibition assay (residual activity on the fluorogenic substrate Z-Phe-Arg-MCA); cathepsin B or L (0.3 nM) incubated 5 min at 37°C with varied inhibitor in 100 mM sodium acetate pH 5.5, 2.5 mM DTT; substrate 0.01 mM; triplicate; Ki(app) by non linear regression (GraFit), Ki by Morrison's procedure.
As for Canecystatin-1 (natural protein), the Ki was 87.6 nM.
With “Oryzacystatin-1 (from UniProt P09229 39-140) (natural protein)”, the Ki came out at 78.5 nM.

The target in another assay is human cathepsin L (human). Described as above.
Substance Canecystatin-1 (natural protein) registered a Ki of 0.1 nM.
Same read-out and setting: next, “Reverse Mutant 1 (T30I) (designed binder)”: 1.93 nM; “Reverse Mutant 2 (Q97L) (designed binder)”: 11.7 nM; “Reverse Mutant 3 (T30I, Q97L) (designed binder)”: 12.5 nM.
